Measurements reported in IntAct's records for PubMed 11964151.

B1: Galactose/lactose metabolism regulatory protein GAL80 (Saccharomyces cerevisiae), P04387 (parent)
chain: MDYNKRSSVSTVPNAAPIRVGFVGLNAAKGWAIKTHYPAILQLSSQFQITALYSPKIETSIATIQRLKLSNATAFPTLESFASSSTIDMIVIAIQVASHYEVVMPLLEFSKNNPNLKYLFVEWALACSLDQAESIYKAAAERGVQTIISLQGRKSPYILRAKELISQGYIGDINSIEIAGNGGWYGYERPVKSPKYIYEIGNGVDLVTTTFGHTIDILQYMTSSYFSRINAMVFNNIPEQELIDERGNRLGQRVPKTVPDHLLFQGTLLNGNVPVSCSFKGGKPTKKFTKNLVIDIHGTKGDLKLEGDAGFAEISNLVLYYSGTRANDFPLANGQQAPLDPGYDAGKEIMEVYHLRNYNAIVGNIHRLYQSISDFHFNTKKIPELPSQFVMQGFDFEGFPTLMDALILHRLIESVYKSNMMGSTLNVSNISHYSL
partner: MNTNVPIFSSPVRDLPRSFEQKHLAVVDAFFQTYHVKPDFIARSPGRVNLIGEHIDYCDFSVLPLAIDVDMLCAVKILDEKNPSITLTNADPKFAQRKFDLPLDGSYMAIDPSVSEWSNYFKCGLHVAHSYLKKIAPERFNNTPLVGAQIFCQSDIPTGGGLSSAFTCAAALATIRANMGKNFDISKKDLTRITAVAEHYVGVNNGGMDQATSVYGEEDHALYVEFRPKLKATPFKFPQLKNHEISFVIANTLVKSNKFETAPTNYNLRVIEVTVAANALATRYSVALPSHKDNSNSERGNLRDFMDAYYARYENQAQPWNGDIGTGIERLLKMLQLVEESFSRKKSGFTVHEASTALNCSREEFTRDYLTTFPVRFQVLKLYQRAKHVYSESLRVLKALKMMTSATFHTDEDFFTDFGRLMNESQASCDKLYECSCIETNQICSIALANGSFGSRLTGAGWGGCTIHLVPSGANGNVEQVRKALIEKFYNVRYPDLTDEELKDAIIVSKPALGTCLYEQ

Variants of: B1
Settings: with gal3_yeast GAL3, P13045

effect of a mutation on the interaction | Variant
decreasing interaction strength | E351K
